# Molecular target: AchR (Homo sapiens, UniProt P02708)
# Assay: ELISA of screened peptide phages on AchR versus streptavidin (OD450)
# Assay type: binding
# Conditions: ELISA of selected 11-mer (L2) peptide phages on AchR, absorbance at 450 nm; Spep-2 positive control
# Experimental: The output phages for the 4th and 5th rounds of biopanning in Example 13-1 were inoculated to E. coli, and plated on the agar plates so as to form 100-200 plaques per plate. The plaques were inoculated on 1 ml of an SB liquid medium containing 50 μg/ml of ampicillin by using a sterile tip, and cultured with shaking at 37° C. for 5 hours, followed by the addition of 30 μl of helper phages, and then cultured at 37° C. and 200 rpm for one day. The culture was centrifuged at 12,000 rpm for 2 minutes to collect supernatant, and 2% BSA was added to the supernatant, and used for phage screening.
# In a 96-well ELISA plate, 5 μg/ml AchR or streptavidin was added at 50 μl per well, and left at 4° C. overnight. The next day, the solution in each well was discarded, followed by the addition of 2% BSA, and then blocked at room temperature for 2 hours. After the solution was all discarded, the wells were washed three times with Tris (20 mM, pH7). In addition, 100 μl of each of the phage solutions obtained from the above-prepared plaques was dispensed into wells and left at 30° C. for 1 hour. After the solution in the wells was all discarded, the wells were washed three times with Tris (20 mM, pH 7), and then the HRP-conjugated anti-M13 antibody diluted 1:2,000 was added at 100 μl per well, followed by culture at 30° C. for 1 hour. After the wells were washed three times with Tris (20 mM, pH7), 100 μl of tetramethylbenzidine was added to each well to induce a color development reaction, and then the reaction was stopped by the addition of 100 μl of 1M H2SO4, and the absorbance at 450 nm (OD450) was measured. The measured absorbance was converted into a ratio of AchR absorbance to streptavidin absorbance (AchR signal/streptavidin signal), and the results are shown in FIGS. 14 to 16.
# AchR, sequence (P02708 21-457): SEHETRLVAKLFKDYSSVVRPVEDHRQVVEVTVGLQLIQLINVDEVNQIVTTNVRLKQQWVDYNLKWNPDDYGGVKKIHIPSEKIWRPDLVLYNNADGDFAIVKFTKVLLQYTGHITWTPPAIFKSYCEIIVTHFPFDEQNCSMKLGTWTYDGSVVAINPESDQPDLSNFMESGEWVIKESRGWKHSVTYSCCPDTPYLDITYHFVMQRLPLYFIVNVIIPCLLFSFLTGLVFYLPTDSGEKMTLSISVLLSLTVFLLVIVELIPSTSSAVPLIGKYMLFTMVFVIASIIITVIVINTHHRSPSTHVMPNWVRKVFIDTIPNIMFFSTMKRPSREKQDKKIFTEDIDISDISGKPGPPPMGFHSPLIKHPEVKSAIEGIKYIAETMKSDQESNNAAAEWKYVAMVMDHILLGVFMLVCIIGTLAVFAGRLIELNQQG
row,Substance,OD
1,L2-6 (PELKCKRMIGR; AchR binding peptide) [Peptide L2-6],0.78
2,L2-7 (WQMKTKKEIWK; AchR binding peptide) [Peptide L2-7],0.753
3,L2-8 (FGHRGKKEWAR; AchR binding peptide) [Peptide L2-8],0.739
4,L2-9 (ATCKPKRPWYK; AchR binding peptide) [Peptide L2-9],0.721
5,L2-10 (TSQKVRKMEAK; AchR binding peptide) [Peptide L2-10],0.803
6,L2-11 (GIPKYRRGCSR; AchR binding peptide) [Peptide L2-11],0.791
7,L2-12 (AYAKARRWGQK; AchR binding peptide) [Peptide L2-12],0.83
8,L2-13 (GGLKSKRLTTR; AchR binding peptide) [Peptide L2-13],0.855
9,L2-14 (GMWKVRKTVFR; AchR binding peptide) [Peptide L2-14],0.746
10,L2-15 (HTTRGKRCDPR; AchR binding peptide) [Peptide L2-15],0.705
11,L2-16 (VDVRNKKSNNR; AchR binding peptide) [Peptide L2-16],0.77
12,L2-17 (GLNRWRRCHHK; AchR binding peptide) [Peptide L2-17],0.72
13,L2-18 (LQSRSKKYSVK; AchR binding peptide) [Peptide L2-18],0.753
14,L2-19 (GWNRAKREESK; AchR binding peptide) [Peptide L2-19],0.727
15,L2-20 (SWQKCKKAEVR; AchR binding peptide) [Peptide L2-20],0.675
16,L2-21 (MVMKWKRWNQR; AchR binding peptide) [Peptide L2-21],0.719
17,L2-22 (MMMRHKRCQYR; AchR binding peptide) [Peptide L2-22],0.75
18,L2-23 (QTYRLKKPLQK; AchR binding peptide) [Peptide L2-23],0.832
19,L2-24 (SFWRERKNGFR; AchR binding peptide) [Peptide L2-24],0.812
20,L2-25 (RLERPRRELTK; AchR binding peptide) [Peptide L2-25],0.842
21,L2-26 (APWRLKRAPQR; AchR binding peptide) [Peptide L2-26],0.809
22,L2-27 (QGEKYRRTESK; AchR binding peptide) [Peptide L2-27],0.747
23,L2-28 (CIWKSKRSPAK; AchR binding peptide) [Peptide L2-28],0.762
24,L2-29 (AILKGKRIPNK; AchR binding peptide) [Peptide L2-29],0.756
25,L2-30 (PTLKWRKPVLR; AchR binding peptide) [Peptide L2-30],0.746
26,L2-31 (NNSRSKRFMNR; AchR binding peptide) [Peptide L2-31],0.737
27,L2-32 (LYMRCKKQAPR; AchR binding peptide) [Peptide L2-32],0.64

row,Substance,OD
1,L2-33 (INYRCRKWVDK; AchR binding peptide) [Peptide L2-33],0.619
2,L2-34 (VMDRDRKWWWR; AchR binding peptide) [Peptide L2-34],0.604
3,L2-35 (NFTKLRKPGPR; AchR binding peptide) [Peptide L2-35],0.683
4,L2-36 (FIPKMRKCSPR; AchR binding peptide) [Peptide L2-36],0.76
5,L2-37 (TLWKVRKAYSR; AchR binding peptide) [Peptide L2-37],0.66
6,L2-38 (ESEKIKRLSTR; AchR binding peptide) [Peptide L2-38],0.88
7,L2-39 (LMTKNRRNSFR; AchR binding peptide) [Peptide L2-39],0.669
8,L2-40 (PEVKVRRHSMR; AchR binding peptide) [Peptide L2-40],0.685
9,L2-41 (AEVKDKKAYYK; AchR binding peptide) [Peptide L2-41],0.568
10,L2-42 (YYAKSKKYMVR; AchR binding peptide) [Peptide L2-42],0.508
11,L2-43 (LMDRTRRDMYK; AchR binding peptide) [Peptide L2-43],0.572
12,L2-44 (NMGRHKRPFLK; AchR binding peptide) [Peptide L2-44],0.579
13,L2-45 (WIYRGRKDVAK; AchR binding peptide) [Peptide L2-45],0.584
14,L2-46 (CYWKAKRYPMR; AchR binding peptide) [Peptide L2-46],0.704
15,L2-47 (IEDKGRRINPR; AchR binding peptide) [Peptide L2-47],0.707
16,L2-48 (VSTKIKKEPQR; AchR binding peptide) [Peptide L2-48],0.629
17,L2-49 (YPFKAKRPAEK; AchR binding peptide) [Peptide L2-49],0.734
18,L2-50 (SADRNKRHMTR; AchR binding peptide) [Peptide L2-50],0.656
19,L2-51 (SLYRQKRHDYK; AchR binding peptide) [Peptide L2-51],0.653
20,L2-52 (LPSRPKKPVPK; AchR binding peptide) [Peptide L2-52],0.624
21,L2-53 (PAWRCKRCQPK; AchR binding peptide) [Peptide L2-53],0.614
22,L2-54 (HHWRFKREMPR; AchR binding peptide) [Peptide L2-54],0.609
23,L2-55 (PACRSKRDWQK; AchR binding peptide) [Peptide L2-55],0.524
24,L2-56 (FICKSRKFYGK; AchR binding peptide) [Peptide L2-56],0.713
25,L2-57 (LEHKERKDDFR; AchR binding peptide) [Peptide L2-57],0.795
26,L2-58 (ANPKNRKDNLR; AchR binding peptide) [Peptide L2-58],0.701
27,L2-59 (FGVKYRRVICR; AchR binding peptide) [Peptide L2-59],0.69

row,Substance,OD
1,L2-60 (HADKFRRFNMR; AchR binding peptide) [Peptide L2-60],0.697
2,L2-61 (PTIRVRKSDDR; AchR binding peptide) [Peptide L2-61],0.688
3,L2-62 (NLHKPKRDLPK; AchR binding peptide) [Peptide L2-62],0.736
4,L2-63 (IDGKWRKICTR; AchR binding peptide) [Peptide L2-63],0.742
5,L2-64 (SPFRAKRQDVR; AchR binding peptide) [Peptide L2-64],0.683
6,L2-65 (PLWKTRKIEPR; AchR binding peptide) [Peptide L2-65],0.731
7,L2-66 (PNYKWRKSRRR; AchR binding peptide) [Peptide L2-66],0.798
8,L2-67 (KTGRSKRHRWR; AchR binding peptide) [Peptide L2-67],0.696
9,L2-68 (GPDKSRRNLHR; AchR binding peptide) [Peptide L2-68],0.721
10,L2-69 (WCCKTKRAVMK; AchR binding peptide) [Peptide L2-69],0.676
11,L2-70 (QLLKMRKALSR; AchR binding peptide) [Peptide L2-70],0.67
12,L2-71 (PYLRSKRFPPR; AchR binding peptide) [Peptide L2-71],0.651
13,L2-72 (APHKWRKQEQR; AchR binding peptide) [Peptide L2-72],0.638
14,L2-73 (PPFKFRKPLGR; AchR binding peptide) [Peptide L2-73],0.662
15,L2-74 (CIMRVKRMWWK; AchR binding peptide) [Peptide L2-74],0.651
16,L2-75 (YILRDKKVPLK; AchR binding peptide) [Peptide L2-75],0.539
17,L2-76 (PWVRIRKMASR; AchR binding peptide) [Peptide L2-76],0.725
18,L2-77 (VADRQKKTAPK; AchR binding peptide) [Peptide L2-77],0.733
19,L2-78 (HHNRMKKQYHR; AchR binding peptide) [Peptide L2-78],0.718
20,L2-79 (EGAKYRRDGWR; AchR binding peptide) [Peptide L2-79],0.689
21,L2-80 (FWDRVKRNPSK; AchR binding peptide) [Peptide L2-80],0.685
22,L2-81 (TMWRQRKMSCK; AchR binding peptide) [Peptide L2-81],0.705
23,L2-82 (PDTRWKRVLFK; AchR binding peptide) [Peptide L2-82],0.693
24,L2-83 (HQQKCKKTTTK; AchR binding peptide) [Peptide L2-83],0.65
25,L2-84 (PWHKGKRDFDR; AchR binding peptide) [Peptide L2-84],0.574

# Reference: US20260000597A1 (priority 2018, published 2026)
